Measured values taken from patent US20180193457A1 (University of Washington, published 2018).

Tests used:
[1] = target: T1, wild-type FimH adhesin variant of the uropathogenic E. coli strain J96 (FimH^wt) (uropathogenic E. coli strain J96, UniProt P08191 22-300); experiment: cell-based or functional assay
[2] = target: T1, wild-type FimH adhesin variant of the …; experiment: SPR2 (Analytical Biopharmacy Core), FimH^wt fimbriae on CM5 chip, mAb as analyte, 1:1 Langmuir model

B1: mAb926 (antibody, V domains shown)
VH: QVQLQQSGAELATPGASVKMSCKASGYTSTNYWIHWVKQRPGQGLEWIGYINPTSGYTEYNQNFKDKATLTADKSSSTAYMQLTSLTSEDSAVYYCARGVIRDFWGQGTTLTVSS
VL: DVLMTQTPLSLPVSLGDQASISCRSSQNIVHNNGNTYLEWYLQSPGQSPKLLIYKVSNRFSGVPDRFSGSGSGTDFTLKISRVEAEDLGVYYCFQGSHVPFTFGSGTKLEIK
notes: also called mA926; mAb296
With B1 as the binder, how does the “half-maximal inhibitory concentration (IC50) of bacterial adhesion to mannosylated (yeast mannan) surfaces” value [1] read?
The value was 400 pM.

And the Kd [2]?
Its Kd is 220 pM.
